From US12606635B2, “Glypican-2-binding moieties, chimeric antigen receptors and uses thereof” (Nanjing Legend Biotech Co., Ltd., priority 2020, dated 2026)

Key:
[1] = system: neuroblastoma SH-SY5Y xenograft; assay type: in vivo, NCG mice
Description: A single dose of untransduced T cells (10×10^6) or CAR T cells (5×10^6) was administered intravenously to tumor engrafted mice 9 days after tumor inoculation (FIG. 9A). […] At the end of obversion, 100% of monovalent CAR T cells (CAS70950VH6-BBz, CAS72669VH6-BBz) and 80% of multi-valent CAR T cells (CAS70950VH6-AS71529VH6-BBz) treated mice were alive (FIG. 9A). At day 42 post treatment, 2/5 mice (40%) treated with CAS72669VH6-BBz expressing CAR T cells were tumor-free and 3/5 mice (60%) treated with CAS70950VH6-AS71529VH6-BBz expressing CAR T cells were tumor-free without recurrence. […] The data highlighted the superiority of VHH-based CAR T cells in tumor regression and protection of mice from disease progression.
Moreover, the expansion and persistence of CAR T cells in vivo are also considered as critical predictors of durable clinical tumor regression in patients with cancer. […] Average 5.00±6.42% of CAR T cells were found in the peripheral blood of NCG mice treated with 5×10^6 CAS70950VH6-AS71529VH6-BBz CAR T cells, whereas less than 1% CAR T cells were detected in CAS70950VH6-BBz, CAS72669VH6-BBz and CAS71529VH6-BBz expressing CAR T groups. Expansion of CAR T cells in the CAS70950VH6-AS71529VH6-BBz group was inversely correlated with tumor size over time.

[2] = system: GPC2 negative human epidermoid carcinoma cell line A-431; test: In vitro cytotoxicity assay (LDH), A-431; assay type: cell-based; conditions: FIG. 7G
Description: (§1) The pre-activated T cells were transduced with lentivirus stock in the presence of […] polybrene and 300 IU/mL IL-2. T cells and lentivirus were centrifuged at 1000 g, 32° C. for 1 h and placed in humidified cell culture incubator for transgene expression under suitable conditions. On day 5 or day 7 or day 10 post-transduction, transduced T cells were harvested and co-incubated with tumor cells at an effector (CAR T) to target cell ratio of 10:1 or 5:1 or 2:1 or 1:1 or 0.2:1 for 20 hours. Target cells were human neuroblastoma cell line SH-SY5Y (ATCC, #CRL-2266), human neuroblastoma cell line IMR-32 cells (ATCC, #CCL-127), or human epidermoid carcinoma cell line A-431 (ATCC, #CRL-1555). To assay the cytotoxicity of CAR T cells on tumor cells, the Cytotoxicity Detection Kit (LDH) (Roche, #11644793001) assay reagents were prepared according to manufacturer's protocol. Reaction mix was added to the cell-free supernatant of each sample to detect the LDH released from cells. Optical densities at OD492 nm and OD650 nm were measured by PHERStar Microplate Reader. Baseline LDH released from the target cell in the absence of effector cells and effector cell in the absence of target cells were subtracted from the total LDH amount. The target maximum release was obtained by adding Triton-X100 at a final concentration of 1% to target cells in the absence of effector cells at the time when the cytotoxicity assays initiated. […] The specific cytotoxicity was calculated by the formula: % Target cell lysis=100*[(OD CAR T cell+Target cell)−(OD CAR T cell)−(OD Target cell)+(OD Buffer background)]/(OD Target Maximum release−OD Target Minimum release).
(§2) On day 5 or day 8 or day 10 post-transduction, transduced T cells were harvested and co-incubated with tumor cells at an effector (CAR T) to target cell ratio of 10:1 or 1:1 or 0.2:1 for 20 hours. To assay the cytotoxicity of CAR T cells on tumor cells, the Cytotoxicity Detection Kit (LDH) (Roche, #11644793001) was added to the culture supernatant and the specific cytotoxicity for each CAR T cell construct was measured as described in Example 6.

SH-SY5Y = test: IFNγ release in co-culture with SH-SY5Y; assay type: cell-based, human; conditions: Example 7, co-culture with SH-SY5Y, FIG. 8D-8F
Excerpt: (§3) In addition to the cytotoxicity data above, supernatants from the in vitro co-culture assays were also collected to assess CAR T cells-induced cytokine release, e.g., release of interferon gamma (i.e., IFNγ), as another indicator of cytotoxicity, was quantified using a HTRF human IFNγ AlphaLISA kit (Perkin Elmer, #62HIFNGPEH) per manufacturer's instruction. […] No significant cytokine release were detected against GPC2-negative cell line A-431.
(§4) Supernatants from the in vitro co-culture assays were collected to assess CAR T cells-induced cytokine release, e.g., interferon gamma (i.e., IFNγ) release as described in Example 6. […] IFNγ was not induced in GPC2-negative A-431 cells. […] Cytokine release data was consistent with the in vitro cytotoxicity data.

IMR-32 = test: IFNγ release in co-culture with IMR-32; assay type: cell-based, human; conditions: Example 7, co-culture with IMR-32, FIG. 8D-8F
Excerpt: as §3, §4

[3] = system: human neuroblastoma cell line SH-SY5Y; test: In vitro cytotoxicity assay (LDH), SH-SY5Y; assay type: cell-based; conditions: SH-SY5Y, effector to target ratio 10:1, 20 hours, FIG. 8A
Description: The pre-activated T cells were transduced with lentivirus stock in the presence of […] polybrene and 300 IU/mL IL-2. T cells and lentivirus were centrifuged at 1000 g, 32° C. for 1 h and placed in humidified cell culture incubator for transgene expression under suitable conditions. On day 5 or day 7 or day 10 post-transduction, transduced T cells were harvested and co-incubated with tumor cells at an effector (CAR T) to target cell ratio of 10:1 or 5:1 or 2:1 or 1:1 or 0.2:1 for 20 hours. Target cells were human neuroblastoma cell line SH-SY5Y (ATCC, #CRL-2266), human neuroblastoma cell line IMR-32 cells (ATCC, #CCL-127), or human epidermoid carcinoma cell line A-431 (ATCC, #CRL-1555). To assay the cytotoxicity of CAR T cells on tumor cells, the Cytotoxicity Detection Kit (LDH) (Roche, #11644793001) assay reagents were prepared according to manufacturer's protocol. Reaction mix was added to the cell-free supernatant of each sample to detect the LDH released from cells. Optical densities at OD492 nm and OD650 nm were measured by PHERStar Microplate Reader. Baseline LDH released from the target cell in the absence of effector cells and effector cell in the absence of target cells were subtracted from the total LDH amount. The target maximum release was obtained by adding Triton-X100 at a final concentration of 1% to target cells in the absence of effector cells at the time when the cytotoxicity assays initiated. Supernatant from target cells in the absence of effector cells was used for target minimum release. The specific cytotoxicity was calculated by the formula: % Target cell lysis=100*[(OD CAR T cell+Target cell)−(OD CAR T cell)−(OD Target cell)+(OD Buffer background)]/(OD Target Maximum release−OD Target Minimum release).
as §2

[4] = system: human neuroblastoma cell line IMR-32; test: In vitro cytotoxicity assay (LDH), IMR-32; assay type: cell-based; conditions: co-cultured with IMR-32, FIG. 8C
Description: as §1, §2

[5] = 5×10^6 CAR T cells i.v., FIG. 9A

Molecule	cytotoxicity against GPC2 negative A-431 [2]	IFNγ release (SH-SY5Y)	IFNγ release (IMR-32)	specific percentage lysis [3]	cytolytic activity compared with monovalent CAR T cells [4]	also measured
CAS72669VH6-BBz: humanized VHH anti-GPC2 CAR (4-1BB, CD3ζ), SEQ ID NO: 226; tested as CAR T cells (protein, expressed in CAR T cells; CAS72669VH6-BBz) MALPVTALLLPLALLLHAARPQVQLVESGGGVVQPGGSLRLSCAASRFTYSSYCMGWIRQAPGKGREGVAIFYTGGGRTYYADSVKGRFTISQDNSKNTLYLQMNSLRAEDTAVYYCVAGFYCSGGYWEGDFGYWGQGTLVTVSSTTTPAPRPPTPAPTIASQPLSLRPEACRPAAGGAVHTRGLDFACDIYIWAPLAGTCGVLLLSLVITLYCKRGRKKLLYIFKQPFMRPVQTTQEEDGCSCRFPEEEEGGCELRVKFSRSADAPAYKQGQNQLYNELNLGRREEYDVLDKRRGRDPEMGGKPRRKNPQEGLYNELQKDKMAEAYSEIGMKGERRRGKGHDGLYQGLSTATKDTYDALHMQALPPR	no cytotoxicity	–	–	–	–	treated mice alive at the end of observation [1, 5]: 100%; tumor regression compared with CAS71529VH6-BBz [1, 5]: more pronounced; tumor-free mice (number of mice) ([1]; day 42 post treatment): 2/5; tumor-free mice (percent) ([1]; day 42 post treatment): 40%; tumor burden compared with untransduced T cell-treated group ([1]; fourteen days after treatment, 5×10^6 CAR T cells i.v., FIG. 9A): reduced tumor burden; percentage of CAR T cells in peripheral blood ([1]; mouse, in vivo): less than 1%
CAS72052VH5-AS71529VH5-BBz: bivalent tandem anti-GPC2 CAR (4-1BB, CD3ζ), SEQ ID NO: 240; tested as CAR T cells (protein, expressed in CAR T cells; CAS72052VH5-AS71529VH5-BBz) MALPVTALLLPLALLLHAARPQVQLVESGGGVVQPGGSLRLSCAVSGFRYASYCMGWFRQAPGKGLEGVAAIHSDGIIRYAESVKGRFTISKDNSKNTLYLQMNSLRAEDTAVYYCAAGAYCGADAILTLYDYAFWGQGTLVTVSSGGGGSGGGGSGGGGSEVQLVESGGGLVQPGGSLRLSCAVSEYRYSSRYCMGWFRQAPGKGLEGVSAIDSNGSADYVDSVKGRFTISKDNSKNTLYLQMNSLRAEDTAVYYCAADHLAYDCYSGATSVFRYWGQGTLVTVSSTTTPAPRPPTPAPTIASQPLSLRPEACRPAAGGAVHTRGLDFACDIYIWAPLAGTCGVLLLSLVITLYCKRGRKKLLYIFKQPFMRPVQTTQEEDGCSCRFPEEEEGGCELRVKFSRSADAPAYKQGQNQLYNELNLGRREEYDVLDKRRGRDPEMGGKPRRKNPQEGLYNELQKDKMAEAYSEIGMKGERRRGKGHDGLYQGLSTATKDTYDALHMQALPPR	–	high levels of IFNγ	high levels of IFNγ	83.00±4.58%	equivalent or better cytolytic activity	–
CAS79236VH6-BBz: humanized VHH anti-GPC2 CAR (4-1BB, CD3ζ), SEQ ID NO: 233; tested as CAR T cells (protein, expressed in CAR T cells; CAS79236VH6-BBz) MALPVTALLLPLALLLHAARPEVQLVESGGGLVQPGGSLRLSCAVSGYTYSSYCMAWFRQAPGKGLEGVASIDAGGRTTYVDSVKGRFTISKDNAKNSLYLQMNSLRAEDTAMYYCAVDVRTRCGGTWDGEAVYFPYWGQGTLVTVSSTTTPAPRPPTPAPTIASQPLSLRPEACRPAAGGAVHTRGLDFACDIYIWAPLAGTCGVLLLSLVITLYCKRGRKKLLYIFKQPFMRPVQTTQEEDGCSCRFPEEEEGGCELRVKFSRSADAPAYKQGQNQLYNELNLGRREEYDVLDKRRGRDPEMGGKPRRKNPQEGLYNELQKDKMAEAYSEIGMKGERRRGKGHDGLYQGLSTATKDTYDALHMQALPPR	no cytotoxicity	–	–	–	–	–
CAS78117VH4-BBz: humanized VHH anti-GPC2 CAR (4-1BB, CD3ζ), SEQ ID NO: 227; tested as CAR T cells (protein, expressed in CAR T cells; CAS78117VH4-BBz) MALPVTALLLPLALLLHAARPEVQLVESGGGLVQPGGSLRLSCIVSRYTYATYSMAWFRQAPGKGLEGVSGLDSVGATGYAESVKGRFTISRDNSKNTLYLQMNSLRAEDTAVYYCVVDPASAKVTYGSWSTPSYAYWGQGTLVTVSSTTTPAPRPPTPAPTIASQPLSLRPEACRPAAGGAVHTRGLDFACDIYIWAPLAGTCGVLLLSLVITLYCKRGRKKLLYIFKQPFMRPVQTTQEEDGCSCRFPEEEEGGCELRVKFSRSADAPAYKQGQNQLYNELNLGRREEYDVLDKRRGRDPEMGGKPRRKNPQEGLYNELQKDKMAEAYSEIGMKGERRRGKGHDGLYQGLSTATKDTYDALHMQALPPR	no cytotoxicity	–	–	–	–	–
CAS71529VH6-AS70950VH6-BBz: bivalent tandem anti-GPC2 CAR (4-1BB, CD3ζ), SEQ ID NO: 242; tested as CAR T cells (protein, expressed in CAR T cells; CAS71529VH6-AS70950VH6-BBz) MALPVTALLLPLALLLHAARPEVQLVESGGGLVQPGGSLRLSCAVSEYRYSSRYCMGWFRQAPGKGREGVAAIDSNGSADYVDSVKGRFTISKDNSKNTLYLQMNSLRAEDTAMYYCAADHLAYDCYSGATSVFRYWGQGTLVTVSSGGGGSGGGGSGGGGSEVQLVESGGGLVQPGGSLRLSCAISEFTYKNTCVGWFRQAPGKGREGVAAIDSDGNTNYVDSVKGRFTISQDNSKNTVYLQMNSLRAEDTAMYYCAAGAYCGRLLLWIGNYAYWGQGTLVTVSSTTTPAPRPPTPAPTIASQPLSLRPEACRPAAGGAVHTRGLDFACDIYIWAPLAGTCGVLLLSLVITLYCKRGRKKLLYIFKQPFMRPVQTTQEEDGCSCRFPEEEEGGCELRVKFSRSADAPAYKQGQNQLYNELNLGRREEYDVLDKRRGRDPEMGGKPRRKNPQEGLYNELQKDKMAEAYSEIGMKGERRRGKGHDGLYQGLSTATKDTYDALHMQALPPR	–	high levels of IFNγ	high levels of IFNγ	70.33±4.93%	equivalent or better cytolytic activity	–
